Consider two molecules from patent US20190184015A1, “IRRADIATION TREATMENT OF NEUROLOGICAL SENSATIONS BY PHOTOABLATION” (European Molecular Biology Laboratory, priority 2016, published 2019).

“Also recorded” adds a separate entry of the source.

Data set [1] has as its system pain signaling (TrkA). Nature of the data set: Mechanical hypersensitivity after injection of the NGF ligand into the paw. The format is in vivo, mouse. To be noted: injected into the paw of mice.
In data set [2] the target is TrkC (Homo sapiens, UniProt Q16288). Nature of the data set: NGF^SNAP binding to Trk expressing cells.
Data set [3] deals with TrkB (Homo sapiens, UniProt Q16620). In words: NGF^SNAP binding to Trk expressing cells.
Data set [4] deals with T1, native TrkB receptors in DRG neurons (Mus musculus, UniProt P15209).
T1 construct: whether BDNF^SNAP would recognize native TrkB receptors in DRG neurons; endogenous in cells; host or cells: dissociated dorsal root ganglion neurons from TrkBCreERT2::Rosa26RFP mice
In words: BDNF^SNAP Qdot 655 labelling of dissociated DRG. The format is binding. The following applies: conjugated to Qdot 655; dissociated DRG from TrkBCreERT2::Rosa26RFP mice. The source says:
The inventors further tested whether BDNF^SNAP would recognize native TrkB receptors in DRG neurons.

In data set [5] the target is T2, TrkC/p75 (Homo sapiens, UniProt Q16288).
T2 construct: expressed in transfected cells; host or cells: HEK293T
In words: BDNF^SNAP labelling of transfected HEK293T cells. The format is binding. To be noted: labelled with SNAP-Surface647. The source says:
(§1) In light of the clinical importance of mechanical allodynia in neuropathic pain patients, it was sought to develop a pharmacological strategy to exploit the striking selectivity of TrkB to the peripheral neurons which provoke this pain state. It was reasoned that BDNF, the ligand for TrkB, may give access to these neurons and allow for their manipulation in wildtype, non-transgenic animals. To this end the inventors produced a recombinant BDNF protein with a SNAP-tag fused to its C-terminus that would enable its chemical derivatization. BDNF^SNAP was labelled in vitro with fluorescent SNAP-Surface647 substrate and applied to HEK293T cells expressing neurotrophin receptors.

In data set [6] the target is T3, TrkA/p75 (Homo sapiens, UniProt P04629).
T3 construct: expressed in transfected cells; host or cells: HEK293T
Nature of the data set: BDNF^SNAP labelling of transfected HEK293T cells. The format is binding. The following applies: labelled with SNAP-Surface647.
Source text: as §1

In data set [7] the target is T4, TrkB/p75 (Homo sapiens, UniProt Q16620).
T4 construct: expressed in transfected cells; host or cells: HEK293T
In words: BDNF^SNAP labelling of transfected HEK293T cells. Format: binding. To be noted: labelled with SNAP-Surface647.
Source text: as §1

T4 sequence (Q16620 32-822, species assumed): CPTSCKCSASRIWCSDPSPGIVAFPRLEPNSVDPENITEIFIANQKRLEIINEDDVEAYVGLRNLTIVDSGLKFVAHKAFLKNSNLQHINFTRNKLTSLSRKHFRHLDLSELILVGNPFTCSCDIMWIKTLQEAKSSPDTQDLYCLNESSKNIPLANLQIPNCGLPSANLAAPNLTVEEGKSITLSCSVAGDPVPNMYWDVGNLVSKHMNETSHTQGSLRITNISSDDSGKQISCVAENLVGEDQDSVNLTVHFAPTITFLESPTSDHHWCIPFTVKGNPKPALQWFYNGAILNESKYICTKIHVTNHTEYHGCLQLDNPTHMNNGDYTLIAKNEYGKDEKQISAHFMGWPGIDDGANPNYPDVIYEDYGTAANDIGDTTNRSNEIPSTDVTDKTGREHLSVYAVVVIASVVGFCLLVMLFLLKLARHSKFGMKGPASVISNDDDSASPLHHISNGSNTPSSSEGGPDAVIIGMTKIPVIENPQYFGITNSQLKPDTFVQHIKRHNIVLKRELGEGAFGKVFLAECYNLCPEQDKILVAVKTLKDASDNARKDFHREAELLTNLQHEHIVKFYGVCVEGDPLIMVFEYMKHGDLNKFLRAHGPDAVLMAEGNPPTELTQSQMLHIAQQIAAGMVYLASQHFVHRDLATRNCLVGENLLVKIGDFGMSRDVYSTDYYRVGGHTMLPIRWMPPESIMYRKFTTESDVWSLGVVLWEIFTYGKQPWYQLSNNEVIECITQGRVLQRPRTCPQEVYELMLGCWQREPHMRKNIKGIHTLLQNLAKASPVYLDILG
Chain of TrkB (Q16620 32-822, species assumed): as above
T3 sequence (P04629 33-796, species assumed): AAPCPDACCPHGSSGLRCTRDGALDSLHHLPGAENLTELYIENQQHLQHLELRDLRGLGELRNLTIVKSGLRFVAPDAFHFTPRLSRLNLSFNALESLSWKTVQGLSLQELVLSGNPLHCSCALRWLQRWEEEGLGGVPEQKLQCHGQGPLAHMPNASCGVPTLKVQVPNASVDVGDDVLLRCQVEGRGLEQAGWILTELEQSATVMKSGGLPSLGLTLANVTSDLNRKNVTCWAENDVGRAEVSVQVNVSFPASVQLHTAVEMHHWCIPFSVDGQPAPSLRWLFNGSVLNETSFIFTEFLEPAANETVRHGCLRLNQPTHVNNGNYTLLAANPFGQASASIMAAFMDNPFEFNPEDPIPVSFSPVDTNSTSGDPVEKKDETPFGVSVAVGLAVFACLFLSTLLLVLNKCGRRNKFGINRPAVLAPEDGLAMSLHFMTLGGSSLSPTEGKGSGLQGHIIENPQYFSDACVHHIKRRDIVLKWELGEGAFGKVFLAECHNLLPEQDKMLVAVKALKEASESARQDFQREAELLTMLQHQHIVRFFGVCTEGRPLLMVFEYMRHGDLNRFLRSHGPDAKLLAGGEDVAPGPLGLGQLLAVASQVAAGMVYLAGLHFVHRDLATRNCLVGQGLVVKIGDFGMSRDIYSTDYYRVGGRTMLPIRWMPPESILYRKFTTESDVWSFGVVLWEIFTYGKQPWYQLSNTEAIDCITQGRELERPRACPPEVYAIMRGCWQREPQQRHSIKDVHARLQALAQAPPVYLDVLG
T1 sequence (P15209 32-821): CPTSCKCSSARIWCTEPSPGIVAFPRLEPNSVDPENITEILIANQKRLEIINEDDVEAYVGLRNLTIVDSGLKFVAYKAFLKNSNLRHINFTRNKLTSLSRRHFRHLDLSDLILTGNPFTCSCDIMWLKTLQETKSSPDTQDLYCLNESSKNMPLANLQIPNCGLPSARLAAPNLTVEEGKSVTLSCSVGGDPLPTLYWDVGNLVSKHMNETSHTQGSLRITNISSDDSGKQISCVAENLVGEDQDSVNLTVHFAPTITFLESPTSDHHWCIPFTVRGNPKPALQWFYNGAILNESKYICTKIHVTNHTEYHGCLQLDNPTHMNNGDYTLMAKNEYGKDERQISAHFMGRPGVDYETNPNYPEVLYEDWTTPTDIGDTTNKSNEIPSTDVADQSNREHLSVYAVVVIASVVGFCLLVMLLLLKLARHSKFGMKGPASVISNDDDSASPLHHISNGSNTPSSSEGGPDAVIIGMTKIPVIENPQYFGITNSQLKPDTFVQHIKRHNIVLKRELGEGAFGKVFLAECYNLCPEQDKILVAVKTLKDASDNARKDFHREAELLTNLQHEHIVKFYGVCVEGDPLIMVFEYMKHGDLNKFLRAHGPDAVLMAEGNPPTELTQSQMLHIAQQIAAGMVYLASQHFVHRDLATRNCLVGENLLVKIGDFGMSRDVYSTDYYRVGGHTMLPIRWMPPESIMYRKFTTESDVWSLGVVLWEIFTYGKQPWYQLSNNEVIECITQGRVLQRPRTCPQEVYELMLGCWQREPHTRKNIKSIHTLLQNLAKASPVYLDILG
Chain of TrkC (Q16288 32-839, species assumed): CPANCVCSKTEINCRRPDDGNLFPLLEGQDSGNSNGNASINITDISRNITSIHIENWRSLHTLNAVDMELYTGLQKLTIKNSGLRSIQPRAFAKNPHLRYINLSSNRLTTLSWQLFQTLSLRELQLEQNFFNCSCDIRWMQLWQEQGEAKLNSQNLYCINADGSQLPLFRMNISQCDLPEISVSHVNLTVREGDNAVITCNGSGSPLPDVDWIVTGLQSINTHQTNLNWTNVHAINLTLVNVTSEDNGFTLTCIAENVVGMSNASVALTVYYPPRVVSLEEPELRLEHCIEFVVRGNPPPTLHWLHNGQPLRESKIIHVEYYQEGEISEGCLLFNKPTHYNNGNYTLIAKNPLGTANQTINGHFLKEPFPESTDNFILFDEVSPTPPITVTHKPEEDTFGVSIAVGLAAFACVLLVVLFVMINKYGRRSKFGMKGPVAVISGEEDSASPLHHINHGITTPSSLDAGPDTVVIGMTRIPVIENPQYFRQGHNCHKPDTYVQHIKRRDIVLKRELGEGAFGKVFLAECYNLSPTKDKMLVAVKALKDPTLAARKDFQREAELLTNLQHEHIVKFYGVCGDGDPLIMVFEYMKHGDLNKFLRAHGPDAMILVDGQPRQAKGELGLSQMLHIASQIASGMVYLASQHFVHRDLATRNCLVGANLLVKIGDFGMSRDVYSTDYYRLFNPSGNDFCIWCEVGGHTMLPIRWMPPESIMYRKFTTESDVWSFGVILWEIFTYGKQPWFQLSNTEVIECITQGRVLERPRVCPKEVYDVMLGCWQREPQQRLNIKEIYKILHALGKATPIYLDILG
T2 sequence (Q16288 32-839, species assumed): as above

On to NGF^SNAP: recombinant NGF^SNAP protein, for which, in data set [1], the “mechanical hypersensitivity provoked by the ligand” value is recorded as “strong sensitizing effect; also recorded: induces mechanical hypersensitivity”. Further, the “binding to TrkC cells” value in data set [2] is given as “not TrkB or TrkC”. In addition, the “binding to TrkB cells” value in data set [3] is “not TrkB or TrkC”.

B1: BDNF^SNAP: recombinant BDNF protein with a SNAP-tag fused to its C-terminus (protein, UniProt P23560 19-247, looked up)
Neurotrophic factor BDNF …: APMKEANIRGQGGLAYPGVRTHGTLESVNGPKAGSRGLTSLADTFEHVIEELLDEDQKVRPNEENNKDADLYTSRVMLSSQVPLEPPLLFLLEEYKNYLDAANMSMRVRRHSDPARRGELSVCDSISEWVTAADKKTAVDMSGGTVTVLEKVPVSKGQLKQYFYETKCNPMGYTKEGCRGIDKRHWNSQCRTTQSYVRALTMDSKKRIGWRFIRIDTSCVCTLTIKRGR
modifications: C-terminal SNAP tag
notes: recombinant BDNF protein with a SNAP-tag fused to its C-terminus
As for B1, in data set [4], the “overlap between BDNF^SNAP and TrkBCreERT2 positive cells” value is on record as above 95%. In addition, the “binding to HEK293T cells expressing TrkC/p75” value in data set [5] is recorded as “did not bind”. In addition, in data set [6], the “binding to HEK293T cells expressing TrkA/p75” value is “did not bind”. For the same molecule, the “binding to HEK293T cells expressing TrkB/p75” value in data set [7] was “remarkable selectivity for its cognate receptor complex TrkB/p75”.
